From US10704030B2, “P450-BM3 variants with improved activity” (Codexis, Inc., priority 2015, dated 2020) come the findings set out here.

Format in all cases: biochemical
The nature of series [1]: Validation of generalist properties: oxidation of imatinib by lyophilized P450-BM3 variant, UPLC-MS. Conditions: [Imatinib] = 1 mM; for TON: TON = [substrate]*% conversion/[P450]; for FIOPC (F02): fold improvement over parent MCYP-P1.2-F02. In short, it runs like this: (§1)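 Lyophilized lysate of E. coli-expressed P450-BM3 variant (stock standardized to 12 μM heme) was incubated 24 h at 30 °C with 1 or 2 mM substrate, 1.0 mM NADP+, 25 mM glucose, 0.5 mg/mL glucose dehydrogenase and 5% DMSO in 100 mM potassium phosphate. Acetonitrile-quenched samples were analyzed by UPLC-MS (positive ESI).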

The nature of series [2]: Validation of generalist properties: oxidation of loratadine by lyophilized P450-BM3 variant, UPLC-MS. The conditions noted are these: [Loratadine] = 1 mM; for TON: TON = [substrate]*% conversion/[P450]; for FIOPC (F02): fold improvement over parent MCYP-P1.2-F02. In short, it runs like this: as §1
The nature of series [3]: Validation of generalist properties: oxidation of diclofenac by lyophilized P450-BM3 variant, UPLC-MS. Conditions: [Diclofenac] = 1 mM; for TON: TON = [substrate]*% conversion/[P450]; for FIOPC (F02): fold improvement over parent MCYP-P1.2-F02. In short, it runs like this:
as §1

Series [4] in a line: Validation of generalist properties: oxidation of gefitinib by lyophilized P450-BM3 variant, UPLC-MS. Conditions: [Gefitinib] = 1 mM; for TON: TON = [substrate]*% conversion/[P450]; for FIOPC (F02): fold improvement over parent MCYP-P1.2-F02. Summed up: as §1

B1: Variant 1: P450-BM3 variant of SEQ ID NO: 14: Y52F; K95P; G115R; T176V; L216Y; D232H; E349T; M491A; T577A; E619D (protein)
chain: MTIKEMPQPKTFGELKNLPLLNTDKPVQALMKIADELGEIFKFEAPGLVTRFLSSQRLIKEACDESRFDKNLSQALKFARDFAGDGLFTSWTHEPNWKKAHNILLPSFSQQAMKRYHAMMVDIAVQLVQKWERLNADEHIEVPEDMTRLTLDTIGLCGFNYRFNSFYRDQPHPFIVSMVRALDEAMNKQQRANPDDPAYDENKRQFQEDIKVMNDYVDKIIADRKASGEQSHDLLTHMLNGKDPETGEPLDDENIRYQIITFLIAGHETTSGLLSFALYFLVKNPHVLQKAAEEAARVLVDPVPSYKQVKQLKYVGMVLNEALRLWPTAPAFSLYAKEDTVLGGEYPLTKGDELMVLIPQLHRDKTIWGDDVEEFRPERFENPSAIPQHAFKPFGNGQRACIGQQFALHEATLVLGMMLKHFDFEDHTNYELDIKETLTLKPEGFVVKAKSKKIPLGGIPSPSTEQSAKKVRKKAENAHNTPLLVLYGSNAGTAEGTARDLADIAMSKGFAPQVATLDSHAGNLPREGAVLIVTASYNGHPPDNAKQFVDWLDQASADEVKGVRYSVFGCGDKNWAATYQKVPAFIDETLAAKGAENIADRGEADASDDFEGTYEEWRDHMWSDVAAYFNLDIENSEDNKSTLSLQFVDSAADMPLAKMHGAFSTNVVASKELQQPGSARSTRHLEIELPKEASYQEGDHLGVIPRNYEGIVNRVTARFGLDASQQIRLEAEEEKLAHLPLAKTVSVEELLQYVELQDPVTRTQLRAMAAKTVCPPHKVELEALLEKQAYKEQVLAKRLTMLELLEKYPACEMKFSEFIALLPSIRPRYYSISSSPRVDEKQASITVSVVSGEAWSGYGEYKGIASNYLAELQEGDTITCFISTPQSEFTLPKDPETPLIMVGPGTGVAPFRGFVQARKQLKEQGQSLGEAHLYFGCRSPHEDYLYQEELENAQSEGIITLHTAFSRMPNQPKTYVQHVMEQDGKKLIELLDQGAHFYICGDGSQMAPAVEATLMKSYADVHQVSEADARLWLQQLEEKGRYAKDVWAG
modifications: P450_BM3
notes: K95P; G115R; T176V; L216Y; D232H; E349T; M491A; T577A; E619D
Take B1: the “% Conv.” value in series [1] is “++++ (15.01-20.00)”; in series [2], “+ (0-5.00)”; in series [3], “+ (0-5.00)”; in series [4], “+ (0-5.00)”. Besides, the TON entry was “‡‡‡‡ (10000-50000)” in series [1], “‡‡ (1001-5000)” in series [2], “‡‡ (1001-5000)” in series [3] and “‡ (0-1000)” in series [4]. Also, the “FIOPC (F02)” value is listed as “**** (10.01-15.00)” in series [1], “* (0.0-3.0)” in series [2], “**** (10.01-15.00)” in series [3] and “* (0.0-3.0)” in series [4].

B2: Variant 2: P450-BM3 variant of SEQ ID NO: 14: Y52F; G115R; T176V; L216Y; D232H; P347T; E349T; T577A; D722S (protein)
chain: MTIKEMPQPKTFGELKNLPLLNTDKPVQALMKIADELGEIFKFEAPGLVTRFLSSQRLIKEACDESRFDKNLSQALKFARDFAGDGLFTSWTHEKNWKKAHNILLPSFSQQAMKRYHAMMVDIAVQLVQKWERLNADEHIEVPEDMTRLTLDTIGLCGFNYRFNSFYRDQPHPFIVSMVRALDEAMNKQQRANPDDPAYDENKRQFQEDIKVMNDYVDKIIADRKASGEQSHDLLTHMLNGKDPETGEPLDDENIRYQIITFLIAGHETTSGLLSFALYFLVKNPHVLQKAAEEAARVLVDPVPSYKQVKQLKYVGMVLNEALRLWPTAPAFSLYAKEDTVLGGEYTLTKGDELMVLIPQLHRDKTIWGDDVEEFRPERFENPSAIPQHAFKPFGNGQRACIGQQFALHEATLVLGMMLKHFDFEDHTNYELDIKETLTLKPEGFVVKAKSKKIPLGGIPSPSTEQSAKKVRKKAENAHNTPLLVLYGSNMGTAEGTARDLADIAMSKGFAPQVATLDSHAGNLPREGAVLIVTASYNGHPPDNAKQFVDWLDQASADEVKGVRYSVFGCGDKNWAATYQKVPAFIDETLAAKGAENIADRGEADASDDFEGTYEEWREHMWSDVAAYFNLDIENSEDNKSTLSLQFVDSAADMPLAKMHGAFSTNVVASKELQQPGSARSTRHLEIELPKEASYQEGDHLGVIPRNYEGIVNRVTARFGLSASQQIRLEAEEEKLAHLPLAKTVSVEELLQYVELQDPVTRTQLRAMAAKTVCPPHKVELEALLEKQAYKEQVLAKRLTMLELLEKYPACEMKFSEFIALLPSIRPRYYSISSSPRVDEKQASITVSVVSGEAWSGYGEYKGIASNYLAELQEGDTITCFISTPQSEFTLPKDPETPLIMVGPGTGVAPFRGFVQARKQLKEQGQSLGEAHLYFGCRSPHEDYLYQEELENAQSEGIITLHTAFSRMPNQPKTYVQHVMEQDGKKLIELLDQGAHFYICGDGSQMAPAVEATLMKSYADVHQVSEADARLWLQQLEEKGRYAKDVWAG
modifications: P450_BM3
notes: G115R; T176V; L216Y; D232H; P347T; E349T; T577A; D722S
Take B2: the “% Conv.” value in series [1] is listed as “++++ (15.01-20.00)”; in series [2], “+ (0-5.00)”; in series [3], “+ (0-5.00)”; in series [4], “+ (0-5.00)”. For the same molecule, the TON entry is recorded as “‡‡‡‡ (10000-50000)” in series [1], “‡‡ (1001-5000)” in series [2], “‡‡ (1001-5000)” in series [3] and “‡ (0-1000)” in series [4]. In addition, the “FIOPC (F02)” value in series [1] is given as “**** (10.01-15.00)”; in series [2], “* (0.0-3.0)”; in series [3], “**** (10.01-15.00)”; in series [4], “* (0.0-3.0)”.

B3: SEQ ID NO:16: P450-BM3 parental backbone from the commercially available MCYP panel (MCYP-0343; Codexis) (protein)
chain: MTIKEMPQPKTFGELKNLPLLNTDKPVQALMKIADELGEIFKFEAPGCVTRYLSSQRLIKEACDESRFDKNLSQALKFARDFLGDGLVTSWTHEINWKKAHNILLPSFSQQAMKGYHAMMVDIAVQLVQKWERLNADEHIEVSEDMTRLTLDTIGLCGFNYRFNSFYRDQPHPFIISMVRALDEVMNKLQRANPDDPAYDENKRQCQEDIKVMNDLVDKIIADRKARGEQSDDLLTQMLNGKDPETGEPLDDGNISYQIITFLIAGHETTSGLLSFALYFLVKNPHVLQKVAEEAARVLVDPVPSYKQVKQLKYVGMVLNEALRLWPTAPAFSLYAKEDTVLGGEYPLEKGDEVMVLIPQLHRDKTIWGDDVEEFRPERFENPSAIPQHAFKPFGNGQRACIGQQFALHEATLVLGMMLKHFDFEDHTNYELDIKETLTLKPEGFVVKAKSKKIPLGGIPSPSTEQSAKKVRKKAENAHNTPLLVLYGSNMGTAEGTARDLADIAMSKGFAPQVATLDSHAGNLPREGAVLIVTASYNGHPPDNAKQFVDWLDQASADEVKGVRYSVFGCGDKNWATTYQKVPAFIDETLAAKGAENIADRGEADASDDFEGTYEEWREHMWSDVAAYFNLDIENSEDNKSTLSLQFVDSAADMPLAKMHGAFSTNVVASKELQQPGSARSTRHLEIELPKEASYQEGDHLGVIPRNYEGIVNRVTARFGLDASQQIRLEAEEEKLAHLPLAKTVSVEELLQYVELQDPVTRTQLRAMAAKTVCPPHKVELEALLEKQAYKEQVLAKRLTMLELLEKYPACEMKFSEFIALLPSIRPRYYSISSSPRVDEKQASITVSVVSGEAWSGYGEYKGIASNYLAELQEGDTITCFISTPQSEFTLPKDPETPLIMVGPGTGVAPFRGFVQARKQLKEQGQSLGEAHLYFGCRSPHEDYLYQEELENAQSEGIITLHTAFSRMPNQPKTYVQHVMEQDGKKLIELLDQGAHFYICGDGSQMAPAVEATLMKSYADVHQVSEADARLWLQQLEEKGRYAKDVWAG
modifications: P450_BM3
For B3, the “% Conv.” value in series [1] is on record as “+ (0-5.00)”; in series [2] it was “+++ (10.01-15.00)”; in series [3] it was “++++ (15.01-20.00)”; in series [4], “+ (0-5.00)”. The TON entry was “‡‡ (1001-5000)” in series [1], “‡‡‡ (5001-10000)” in series [2], “‡‡‡‡ (10000-50000)” in series [3] and “‡‡ (1001-5000)” in series [4].
